For assay [1], the target named is T1, pH4.0-treated TTR (human, UniProt P02766 21-147). The assay is described as follows: summary of Table 4; ELISA on pH4-TTR. Background: An ELISA detects its analyte on a solid surface through an enzyme-linked reagent.
In assay [2] the target is T1, pH4.0-treated TTR. The assay can be described thus: ELISA, pH4-TTR captured by anti-His.
Assay [3] has as its target TTR-V122I (fibrils and oligomeric aggregates) (UniProt P02766 21-147). The assay can be described thus: cell-based or functional assay.
The target in assay [4] is T2, pH4.0-treated TTR (human, UniProt P02766 21-147). The assay can be described thus: summary of Table 4; ELISA on pH4-TTR. This is another data set of the same source.
The target of assay [5] is T2, pH4.0-treated TTR. The assay can be described thus: ELISA, pH4-TTR captured by anti-His. The source holds these as a separate data set.

B1: mouse monoclonal antibody 6C1 (antibody, V domains shown)
VH: EVQLVESGGGLVQPGGSLKLSCAASGFTFSNYYMSWVRQTPEKRLEWVAYISIDGNNIYHPDSVKGRFTISRDNAKNTLYLQMSSLKSEDTAMYYCARDSDYGYFDVWGTGTTVTVSS
VL: DVLMTQTPLSLPVSLGDQASISCRSSQSIVHSNGNTYLEWYLQKRGQSPKLLIYKVSKRFSGVPDRFSGSGSGTDFILKISRVEAEDLGVYYCFQGSHVPLTFGGGTKLELK
notes: also called m6C1; mis-TTR mAb 6C1
On to B1, for which the Kd stood at 0.0145 µM with pH4.0-treated TTR [1] and 0.016 µM in the assay with pH4.0-treated TTR [2].

B2: mouse monoclonal antibody 14G8 (antibody, V domains shown)
VH: EVKLVESGGGLVQPGGSLKLSCAASGFTFSSYTMSWVRQTPEKRLELVAEINNSGDTTYYPDTVKGRFTISRDNAKNTLYLQMSSLKSEDTAMYYCARHYYYGGGYGGWFFDVWGTGTTVTVSS
VL: DIVMTQAAPSVPVTPGESVSISCRSNKSLLHSNGNTYLYWFLQRPGQSPQLLIYRVSNLASGVPDRFSGSGSGTAFTLRISRVEAEDVGVYYCMQHLEYPLTFGAGTKLELKR
As to B2, the “IC50 of inhibition of TTR-V122I fibrillation (ThT fluorescence)” value in assay [3] came to 28 mg/L.

B3: mouse monoclonal antibody 9D5 (antibody, V domains shown)
VH: EVKLVESGGGLVQPGGSLKLSCAASGFTFSSYTMSWVRQTPEKRLELVAEISNSGDTTYYPDTVKGRFTFSRDNAKNTLYLQMSSLKSEDTAMYYCARHYYYGGGYGGWFFDVWGTGTTVTVSS
VL: DIVMTQAAPSVPVTPGESVSISCRSSKSLLHSNGNTYLYWFLQRPGQSPQLLIYRVSNLASGVPDRFSGSGSGTAFTLRISRVEAEDVGVYYCMQHLEYPLTFGAGTKLELK
Regarding B3, the Kd came to 0.257 µM with pH4.0-treated TTR [4] and 0.282 µM with pH4.0-treated TTR [5].

One may read the Kd as the equilibrium constant for the complex coming apart. A high value points to weaker binding.

The record behind these values is patent WO2018007923A2 (dated 2018).
